Assay results as given in patent US20120100132A1 (INDUSTRIAL TECHNOLOGY RESEARCH INSTITUTE, published 2012).

Biological target: T1, uncleavable form of transmembrane TNF-α (deletion mutant, amino acids +1 through +12 deleted) expressed on … (UniProt P01375 1-233)
T1 construct: whole, on cells; The deletion of +1 to +12 cannot be written as substitutions, so it is described under detail; also called deletion mutant transmembrane TNF-α resistant to TACE-mediated cleavage
Assay: flow cytometry saturation binding on transmembrane TNF-α-transfected NS0 cells
Description: Transmembrane TNF-α-transfected NS0 cells were incubated with serial log dilutions of m357-IgG (∘) or h357-IgG antibodies for 1 hr at 4° C. The cells were washed and incubated with Alexa Fluor 488 goat anti-mouse IgG (H+L) for m357-IgG and Alexa Fluor 647 goat anti-human IgG (H+L) for h357-IgG, respectively for 1 hr at 4° C. The cell were then washed and analyzed by a FACSCalibur flow cytometer; and
Transmembrane TNF-α transfected NS0 cells were incubated with serial log dilutions of m357 IgG and h357 IgG for 1 hour at 4° C. in phosphate buffered saline (PBS) containing 2% of a fetal bovine serum (fluorescence-activated cell sorting [FACS] buffer). Cells were washed with a FACS buffer 3 times and were then stained with an Alexa Fluor 488 goat anti-mouse IgG (H+L) for m357 IgG and an Alexa Fluor 647 goat anti-human IgG (H+L) for h357 IgG, respectively for 1 hour at 4° C. Fluorescence intensities were measured using a FACSCalibur flow cytometer (Becton Dickinson, San Jose, Calif.).
TNF-α exists as a membrane associated precursor (transmembrane TNF-α) from which a mature soluble form is released by proteolytic cleavage mediated by the TNF-α converting enzyme (TACE). […]

- Kd: 12 nM
B1: m357 IgG (murine anti-human TNF-α monoclonal antibody from hybridoma 357-104-4, ECACC No. 92030603) (antibody, V domains shown)
VH: VKLQESGGGWVQPGGSMKLSCIASGFTFSNYWMNWVRQSPEKGLEWVAEVRLQSDNFTTHYAESVKGRFTISRDDSKSGVYLQMNNLGAEDTGIYYCTPFAYWGQGTTVTVSS
VL: EIVLTQSPPITSASPGEKVTMTCSASSSVSFMYWYQQKPGSSPRLLIYDASILASGVPVRFSGSGSGTSYSLTISRMEAEDVATYYCQQWSDYSPRTFGGGTKLEIK
notes: Whole murine IgG; also called m35-IgG
